# Patent US20240066131A1 (Protagonist Therapeutics, Inc., priority 2020, published 2024)
# Positions of bridges follow the written chain, without caps; N, C: chain ends. Non-standard residues stand in square brackets, D forms with d. Groups on a side chain read outwards from the residue. *: point of attachment. Dip = N[C@H](C(=O)O)C(c1ccccc1)c1ccccc1; Palmitoyl = CCCCCCCCCCCCCCCC(=O)*; β3hF = N[C@H](CC(=O)O)Cc1ccccc1; NMeK = CN[C@@H](CCCCN)C(=O)O; Isovaleryl = CC(C)CC(=O)*; Orn = NCCC[C@H](N)C(=O)O; Dab = NCC[C@H](N)C(=O)O; Dap = NC[C@H](N)C(=O)O; Ahx = NCCCCCC(=O)O
# T1: human ferroportin (SLC40A1) fused in frame with GFP, stably expressed in HEK293 cells (human, UniProt Q9NP59 1-571)
# T1 sequence (looked up): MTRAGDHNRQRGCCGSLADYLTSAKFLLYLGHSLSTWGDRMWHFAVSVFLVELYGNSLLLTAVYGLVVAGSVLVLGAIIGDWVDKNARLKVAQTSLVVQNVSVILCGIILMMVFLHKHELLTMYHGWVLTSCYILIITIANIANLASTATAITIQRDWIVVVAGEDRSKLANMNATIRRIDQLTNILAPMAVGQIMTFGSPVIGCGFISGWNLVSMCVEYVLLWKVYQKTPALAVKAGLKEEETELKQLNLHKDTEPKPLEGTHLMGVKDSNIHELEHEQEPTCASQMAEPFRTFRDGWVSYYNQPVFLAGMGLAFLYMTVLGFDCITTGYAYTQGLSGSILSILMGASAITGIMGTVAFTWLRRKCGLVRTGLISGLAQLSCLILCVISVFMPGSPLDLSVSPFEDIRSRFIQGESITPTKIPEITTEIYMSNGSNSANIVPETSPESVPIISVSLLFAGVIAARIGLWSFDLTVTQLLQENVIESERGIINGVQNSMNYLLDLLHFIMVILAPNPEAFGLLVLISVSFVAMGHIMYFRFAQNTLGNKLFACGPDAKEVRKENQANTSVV
# T2: ferroportin endogenously expressed on T47D cells (HTB 133, ATCC) (human, UniProt Q9NP59 1-571)
# T2 sequence (looked up): T1 sequence (looked up)
# B1: Isovaleric Acid-E-T-H-F-P-A-I-[Lys(Ahx_Palm)]-F-E-P-R-S-K-G-A-K-NH2 (peptide)
# peptide: Isovaleryl-ETHFPAIK([Ahx-Palmitoyl])FEPRSKGAK-NH2
# SMILES: CCCCCCCCCCCCCCCC(=O)NCCCCCC(=O)NCCCC[C@H](NC(=O)[C@@H](NC(=O)[C@H](C)NC(=O)[C@@H]1CCCN1C(=O)[C@H](Cc1ccccc1)NC(=O)[C@H](Cc1c[nH]cn1)NC(=O)[C@@H](NC(=O)[C@H](CCC(=O)O)NC(=O)CC(C)C)[C@@H](C)O)[C@@H](C)CC)C(=O)N[C@@H](Cc1ccccc1)C(=O)N[C@@H](CCC(=O)O)C(=O)N1CCC[C@H]1C(=O)N[C@@H](CCCNC(=N)N)C(=O)N[C@@H](CO)C(=O)N[C@@H](CCCCN)C(=O)NCC(=O)N[C@@H](C)C(=O)N[C@@H](CCCCN)C(N)=O
# B2: Isovaleric Acid-E-T-H-[Dpa]-P-K-[bhPhe]-[Lys(Ahx_Palm)]-NH2 (peptide)
# peptide: XETHXPKXX
# modifications: N-term Isovaleric Acid; Dpa4; bhPhe7; Lys(Ahx_Palm)8; C-term NH2; cyclized E-K (lactam)
# B3: Isovaleric Acid-Orn-T-H-[Dpa]-P-A-I-E-[bhPhe]-[Lys(Ahx_Palm)]-R-NH2 (peptide)
# peptide: XXTHXPAIEXXR
# modifications: N-term Isovaleric Acid; Orn1; Dpa4; bhPhe9; Lys(Ahx_Palm)10; C-term NH2; cyclized Orn-E (lactam)
# B4: Isovaleric Acid-Dab-T-H-[Dpa]-P-A-I-E-[bhPhe]-[Lys(Ahx_Palm)]-R-NH2 (peptide)
# peptide: XXTHXPAIEXXR
# modifications: N-term Isovaleric Acid; Dab1; Dpa4; bhPhe9; Lys(Ahx_Palm)10; C-term NH2; cyclized Dab-E (lactam)
# B5: Isovaleric Acid-Dap-T-H-[Dpa]-P-A-I-D-[bhPhe]-[Lys(Ahx_Palm)]-R-NH2 (peptide)
# peptide: Isovaleryl-[Dap]TH[Dip]PAID[β3hF]K([Ahx-Palmitoyl])R-NH2
# modifications: lactam 1-8
# SMILES: CCCCCCCCCCCCCCCC(=O)NCCCCCC(=O)NCCCC[C@H](NC(=O)C[C@H](Cc1ccccc1)NC(=O)[C@@H]1CC(=O)NC[C@H](NC(=O)CC(C)C)C(=O)N[C@@H]([C@@H](C)O)C(=O)N[C@@H](Cc2c[nH]cn2)C(=O)N[C@@H](C(c2ccccc2)c2ccccc2)C(=O)N2CCC[C@H]2C(=O)N[C@@H](C)C(=O)N[C@@H]([C@@H](C)CC)C(=O)N1)C(=O)N[C@@H](CCCNC(=N)N)C(N)=O
# B6: Isovaleric Acid-K-T-H-[Dpa]-P-A-I-D-[bhPhe]-[Lys(Ahx_Palm)]-R-NH2 (peptide)
# peptide: Isovaleryl-KTH[Dip]PAID[β3hF]K([Ahx-Palmitoyl])R-NH2
# modifications: lactam 1-8
# SMILES: CCCCCCCCCCCCCCCC(=O)NCCCCCC(=O)NCCCC[C@H](NC(=O)C[C@H](Cc1ccccc1)NC(=O)[C@@H]1CC(=O)NCCCC[C@H](NC(=O)CC(C)C)C(=O)N[C@@H]([C@@H](C)O)C(=O)N[C@@H](Cc2c[nH]cn2)C(=O)N[C@@H](C(c2ccccc2)c2ccccc2)C(=O)N2CCC[C@H]2C(=O)N[C@@H](C)C(=O)N[C@@H]([C@@H](C)CC)C(=O)N1)C(=O)N[C@@H](CCCNC(=N)N)C(N)=O
# B7: Isovaleric Acid-K-T-H-[Dpa]-P-A-I-E-[bhPhe]-NMe[Lys(Ahx_Palm)]-NH2 (peptide)
# peptide: Isovaleryl-KTH[Dip]PAIE[β3hF][NMeK]([Ahx-Palmitoyl])-NH2
# modifications: lactam 1-8
# SMILES: CCCCCCCCCCCCCCCC(=O)NCCCCCC(=O)NCCCC[C@@H](C(N)=O)N(C)C(=O)C[C@H](Cc1ccccc1)NC(=O)[C@@H]1CCC(=O)NCCCC[C@H](NC(=O)CC(C)C)C(=O)N[C@@H]([C@@H](C)O)C(=O)N[C@@H](Cc2c[nH]cn2)C(=O)N[C@@H](C(c2ccccc2)c2ccccc2)C(=O)N2CCC[C@H]2C(=O)N[C@@H](C)C(=O)N[C@@H]([C@@H](C)CC)C(=O)N1
# B8: Isovaleric Acid-Dab-T-H-[Dpa]-P-A-I-D-[bhPhe]-[Lys(Ahx_Palm)]-R-NH2 (peptide)
# peptide: Isovaleryl-[Dab]TH[Dip]PAID[β3hF]K([Ahx-Palmitoyl])R-NH2
# modifications: lactam 1-8
# SMILES: CCCCCCCCCCCCCCCC(=O)NCCCCCC(=O)NCCCC[C@H](NC(=O)C[C@H](Cc1ccccc1)NC(=O)[C@@H]1CC(=O)NCC[C@H](NC(=O)CC(C)C)C(=O)N[C@@H]([C@@H](C)O)C(=O)N[C@@H](Cc2c[nH]cn2)C(=O)N[C@@H](C(c2ccccc2)c2ccccc2)C(=O)N2CCC[C@H]2C(=O)N[C@@H](C)C(=O)N[C@@H]([C@@H](C)CC)C(=O)N1)C(=O)N[C@@H](CCCNC(=N)N)C(N)=O
# Target: T1, human ferroportin (SLC40A1) fused in …
# Experiment: cell-based or functional assay
row,Binder,FPN EC50
1,B1,177 nM

# Target: T2, ferroportin endogenously expressed on …
# Experiment: cell-based or functional assay
row,Binder,T47D MSA IC50
1,B2,52.3 nM
2,Isovaleryl-ETH[Dip]PAIKK([Ahx-Palmitoyl])-NH2 (lactam 1-8 (inferred)) [Isovaleric Acid-E-T-H-[Dpa]-P-A-I-K-[Lys(Ahx_Palm)]-NH2],10.6 nM
3,Isovaleryl-[Orn]TH[Dip]PAID[β3hF][Lys(Ahx_Palm)]R-NH2 (lactam (positions not given here); not fully specified (bridges)) [Isovaleric Acid-Orn-T-H-[Dpa]-P-A-I-D-[bhPhe]-[Lys(Ahx_Palm)]-R-NH2],35 nM
4,B3,5.77 nM
5,B4,5.53 nM
6,B5,733 nM
7,Isovaleryl-ETH[Dip]PIK[β3hF]K([Ahx-Palmitoyl])-NH2 (lactam 1-7 (inferred)) [Isovaleric Acid-E-T-H-[Dpa]-P-I-K-[bhPhe]-[Lys(Ahx_Palm)]-NH2],25.5 nM
8,B6,3.96 nM
9,B7,4.07 nM
10,Isovaleryl-ETH[Dip]PKK([Ahx-Palmitoyl])-NH2 (lactam 1-6 (inferred)) [Isovaleric Acid-E-T-H-[Dpa]-P-K-[Lys(Ahx_Palm)]-NH2],144 nM
11,B1,11.4 nM
12,B8,131 nM
